Patent publication US20090202549A1 (published 2009)
Positions count from the first letter of the chain named.

Experiments:
Test in all cases: capture assay, relative binding affinity of p40 mAb to p40 muteins (FIG. 4)
[1] = target: T1, human p40 single mutant M23T (human, UniProt P29460 23-328)
T1 construct: transiently expressed in HEK293E cells, supernatant used
T1 sequence: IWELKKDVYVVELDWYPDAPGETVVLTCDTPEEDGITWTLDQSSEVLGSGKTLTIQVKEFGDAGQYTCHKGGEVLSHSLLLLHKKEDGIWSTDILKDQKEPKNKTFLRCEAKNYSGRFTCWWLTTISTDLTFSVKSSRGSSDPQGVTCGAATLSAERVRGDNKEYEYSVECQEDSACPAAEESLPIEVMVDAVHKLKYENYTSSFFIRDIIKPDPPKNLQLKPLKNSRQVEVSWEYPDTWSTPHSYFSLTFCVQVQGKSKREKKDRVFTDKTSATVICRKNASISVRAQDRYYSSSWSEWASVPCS
Method: (§1) In brief, MSD high bind plates (Meso Scale Discovery, MD) were coated with 5 μl of a capture monoclonal antibody (5 μg/ml) at room temperature for 1 hour. […] One-hundred and fifty (150) μl of 5% MSD Blocker A buffer was added to each well and incubated for 1 hr at room temperature. Plates were washed three times with 0.1 M HEPES buffer (pH 7.4). These protein-charged ELISA plates were incubated with 25 μl of different transiently expressed p40 mutant supernatants (1:10 dilution with 0.1 M HEPES buffer, pH 7.4) for 1 hr at room temperature. The plates were washed three times with 0.1 M HEPES buffer (pH 7.4). Twenty-five (25) μl of different concentrations of MSD Sulfo-TAG labeled p40 mAb, ranging from 0 to 20 μg/ml, were dispensed to micro-wells. After incubation for 2 hrs shaking at room temperature, plates were washed 3 times with 0.1 M HEPES buffer (pH 7.4). One hundred and fifty (150) μl of diluted MSD Read Buffer T was dispensed into each well and the plates were analyzed with a SECTOR imager (MSD).
(§2) The relative binding affinity of p40 mAb to different mutant proteins was further analyzed by a capture assay. […] The other mutations, M23T, L40T and S43R, in the interface, each reduced binding by approximately 40%. E45A reduced binding by about 70%.

[2] = target: T2, human p40 single mutant L40T (human, UniProt P29460 23-328)
T2 construct: transiently expressed in HEK293E cells, supernatant used
T2 sequence: T1 sequence with T23M, L40T
Method: as §1, §2

[3] = target: T3, human p40 single mutant S43R (human, UniProt P29460 23-328)
T3 construct: transiently expressed in HEK293E cells, supernatant used
T3 sequence: T1 sequence with T23M, S43R
Method: as §1, §2

[4] = target: T4, human p40 single mutant E45A (human, UniProt P29460 23-328)
T4 construct: transiently expressed in HEK293E cells, supernatant used
T4 sequence: T1 sequence with T23M, E45A
Method: as §1, §2

B1: p40 mAb (fully human monoclonal antibody directed against the p40 subunit of human IL-12 and IL-23) (antibody, V domains shown)
VH: EVQLVQSGAEVKKPGESLKISCKGSGYSFTTYWLGWVRQMPGKGLDWIGIMSPVDSDIRYSPSFQGQVTMSVDKSITTAYLQWNSLKASDTAMYYCARRRPGQGYFDFWGQGTLVTVSS
VL: DIQMTQSPSSLSASVGDRVTITCRASQGISSWLAWYQQKPEKAPKSLIYAASSLQSGVPSRFSGSGSGTDFTLTISSLQPEDFATYYCQQYNIYPYTFGQGTKLEIKR
notes: Fully human IgG made in a mammalian cell line; also called IL-12 p40 antibody; IL-12p40 antibody
[1]
  reduction of binding (relative binding affinity): ~40%
[2]
  reduction of binding (relative binding affinity): ~40%
[3]
  reduction of binding (relative binding affinity): ~40%
[4]
  reduction of binding (relative binding affinity): ~70%
